Data: patent US20160347834A1 (ZENOAQ RESOURCE, published 2016)

Tests used:
[1] = molecular target: T1, human podoplanin on lung squamous cell cancer cells RERF-LC-AI-hPDPN (human, UniProt Q86YL7 23-162); experiment: flow cytometry on RERF-LC-AI-hPDPN cells, antibody 1 µg/ml
T1 construct: Podoplanin gene expression strain
T1 chain: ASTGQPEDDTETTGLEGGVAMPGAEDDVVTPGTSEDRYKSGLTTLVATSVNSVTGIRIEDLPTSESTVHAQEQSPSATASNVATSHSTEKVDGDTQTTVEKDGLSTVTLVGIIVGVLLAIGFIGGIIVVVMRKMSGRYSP
Procedure: (§1) Reactivity of the anti-podoplanin antibodies (LpMab-2, LpMab-3, LpMab-7, and LpMab-9) with a podoplanin expression strain was studied by flow cytometry. […] The reaction products were each reacted further with an anti-mouse IgG-FITC antibody (product of Life Technologies) at 4° C. for 30 minutes. As a negative control, only the secondary antibody of each of them was used. Fluorescence intensity was measured using EC800 (product of Sony).

[2] = molecular target: T2, human podoplanin on seminoma tissue (paraffin section) (human, UniProt Q86YL7 23-162); experiment: immunohistostaining of paraffin sections (FIG. 8)
T2 chain: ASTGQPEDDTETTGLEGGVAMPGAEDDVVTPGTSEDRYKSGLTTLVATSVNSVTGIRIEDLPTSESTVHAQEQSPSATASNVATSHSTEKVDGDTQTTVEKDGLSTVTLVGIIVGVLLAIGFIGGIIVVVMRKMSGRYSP
Procedure: (§2) Various paraffin sections were deparaffined in xylene and ethanol solutions. Antigen activation operation was not performed. The endogenous peroxidase was inactivated with 3% H₂O₂. Blocking was performed at room temperature for 10 minutes with SuperBlock (product of Thermo Fisher) and the primary antibody was reacted at room temperature for one hour. After amplification using a LSAB kit (product of Dako), color was developed using DAB (product of Dako).
(§3) LpMab-23 is a cancer cell-specific antibody. […] LpMab-7 used as a positive control reacted with both cancer cells and lymphatic epithelial cells.

[3] = molecular target: T3, human podoplanin on glioblastoma tissue (paraffin section) (human, UniProt Q86YL7 23-162); experiment: immunohistostaining of paraffin sections (FIG. 8)
T3 chain: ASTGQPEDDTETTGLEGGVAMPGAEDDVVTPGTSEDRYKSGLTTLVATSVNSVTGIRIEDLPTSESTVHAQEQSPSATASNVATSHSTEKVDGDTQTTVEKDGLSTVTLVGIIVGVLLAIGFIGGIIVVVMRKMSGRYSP
Procedure: as §2, §3

[4] = molecular target: T4, human podoplanin on lung squamous cell cancer tissue (paraffin section) (human, UniProt Q86YL7 23-162); experiment: immunohistostaining of paraffin sections (FIG. 8)
T4 chain: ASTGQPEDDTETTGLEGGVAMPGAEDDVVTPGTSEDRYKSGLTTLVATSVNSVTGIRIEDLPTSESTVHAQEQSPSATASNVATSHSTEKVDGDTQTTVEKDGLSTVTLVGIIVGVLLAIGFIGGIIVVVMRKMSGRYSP
Procedure: as §2, §3

[5] = molecular target: T5, human podoplanin on esophageal squamous cell cancer tissue (paraffin section) (human, UniProt Q86YL7 23-162); experiment: immunohistostaining of paraffin sections (FIG. 8)
T5 construct: also called esophagus squamous cell cancer
T5 chain: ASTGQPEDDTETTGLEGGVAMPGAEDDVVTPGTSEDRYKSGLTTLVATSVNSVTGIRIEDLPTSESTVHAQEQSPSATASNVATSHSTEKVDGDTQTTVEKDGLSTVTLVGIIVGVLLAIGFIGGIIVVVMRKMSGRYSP
Procedure: as §2, §3

[6] = molecular target: T6, human podoplanin on normal alveolar epithelial cells (paraffin section) (human, UniProt Q86YL7 23-162); experiment: immunohistostaining of a normal lung paraffin section (FIG. 4D)
T6 construct: also called normal lung
T6 chain: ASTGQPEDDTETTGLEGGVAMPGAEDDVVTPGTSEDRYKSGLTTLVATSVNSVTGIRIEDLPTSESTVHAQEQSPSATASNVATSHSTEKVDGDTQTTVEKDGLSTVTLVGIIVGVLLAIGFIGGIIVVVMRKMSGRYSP
Procedure: (§4) Various paraffin sections were deparaffined in xylene and ethanol solutions. The resulting sections were autoclaved for 20 minutes using an antigen activator reagent (citrate buffer (pH 6.0): product of Dako). Endogenous peroxidase was inactivated with 3% H₂O₂. After blocking at room temperature for 10 minutes with SuperBlock (product of Thermo Fisher), a primary antibody was reacted at room temperature for one hour. After amplification using a LSAB kit (product of Dako), color was developed using DAB (product of Dako).
(§5) LpMab-2 is a tumor-specific antibody. […] LpMab-7 reacted with both (FIG. 4B), which coincided with the data of flow cytometry. LpMab-2 reacted with neither normal alveolar epithelial cells nor lymphatic cells (FIG. 4C). The LpMab-7 on the other hand stained alveolar epithelial cells and lymphatic vessel (FIG. 4D).

[7] = molecular target: T7, synthetic peptide of human podoplanin from position 69 to position 88 (human); experiment: ELISA on synthetic peptides
T7 peptide: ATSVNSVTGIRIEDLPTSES

[8] = molecular target: T8, human podoplanin on testicular tumor cells (paraffin section) (human, UniProt Q86YL7 23-162); experiment: immunohistostaining of a testicular tumor paraffin section (FIG. 4B)
T8 construct: also called tumor portion of testicular tumor
T8 chain: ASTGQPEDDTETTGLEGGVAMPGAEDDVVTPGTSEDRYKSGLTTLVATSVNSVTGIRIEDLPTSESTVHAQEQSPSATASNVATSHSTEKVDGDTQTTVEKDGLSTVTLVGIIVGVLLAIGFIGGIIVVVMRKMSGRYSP
Procedure: as §4, §5

[9] = molecular target: T9, human podoplanin on lymphatic endothelial cells (human, UniProt Q86YL7 23-162); experiment: flow cytometry on lymphatic endothelial cells, antibody 1 µg/ml
T9 construct: Normal cells; cultured cells in flow cytometry, cells in paraffin sections in immunohistostaining (see assay of each row); also called lymphatic epithelial cells; lymphatic cells
T9 chain: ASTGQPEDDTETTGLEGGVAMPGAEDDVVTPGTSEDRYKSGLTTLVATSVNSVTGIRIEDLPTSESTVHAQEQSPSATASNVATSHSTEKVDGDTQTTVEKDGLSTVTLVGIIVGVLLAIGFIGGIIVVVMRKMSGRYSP
Procedure: as §1

[10] = molecular target: T10, human podoplanin on renal epithelial cells HEK-293T (human, UniProt Q86YL7 23-162); experiment: flow cytometry on HEK-293T cells, antibody 1 µg/ml
T10 construct: Podoplanin of the cell line itself; also called normal renal epithelial cells
T10 chain: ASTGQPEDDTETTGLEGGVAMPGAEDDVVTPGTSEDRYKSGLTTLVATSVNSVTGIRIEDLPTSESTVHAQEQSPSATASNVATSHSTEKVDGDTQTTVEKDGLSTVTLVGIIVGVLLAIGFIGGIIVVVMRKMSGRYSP
Procedure: as §1

[11] = molecular target: T11, human podoplanin on glioblastoma cells LN319 (human, UniProt Q86YL7 23-162); experiment: flow cytometry on LN319 cells, antibody 1 µg/ml
T11 construct: Podoplanin of the LN319 cell line itself; also called LN 319 cells; podoplanin expression strain
T11 chain: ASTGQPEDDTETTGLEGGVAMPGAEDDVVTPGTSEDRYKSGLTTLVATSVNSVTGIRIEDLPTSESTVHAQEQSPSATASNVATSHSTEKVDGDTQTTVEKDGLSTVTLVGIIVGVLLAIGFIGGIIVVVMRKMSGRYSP
Procedure: as §1

[12] = molecular target: T12, human podoplanin on mesothelial cells Met-5A (human, UniProt Q86YL7 23-162); experiment: flow cytometry on Met-5A cells, antibody 1 µg/ml
T12 construct: Podoplanin of the cell line itself; also called normal mesothelial cells; normal epithelial cell line (Met-5A)
T12 chain: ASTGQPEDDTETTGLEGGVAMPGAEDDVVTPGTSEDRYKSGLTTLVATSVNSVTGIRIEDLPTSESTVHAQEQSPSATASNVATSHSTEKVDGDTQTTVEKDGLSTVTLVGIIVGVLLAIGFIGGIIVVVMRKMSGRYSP
Procedure: as §1

[13] = molecular target: T13, human podoplanin on oral cancer cells HSC3/hPDPN (human, UniProt Q86YL7 23-162); experiment: flow cytometry on HSC3/hPDPN cells, antibody 1 µg/ml
T13 construct: Podoplanin gene expression strain; also called oral cancer cell line
T13 chain: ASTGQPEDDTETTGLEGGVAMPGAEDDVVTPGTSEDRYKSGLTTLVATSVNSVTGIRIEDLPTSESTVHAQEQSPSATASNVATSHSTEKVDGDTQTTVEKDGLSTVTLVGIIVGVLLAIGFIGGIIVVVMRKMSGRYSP
Procedure: as §1

[14] = molecular target: T14, human podoplanin on malignant mesothelioma cells Y-MESO14-hPDPN (human, UniProt Q86YL7 23-162); experiment: flow cytometry on Y-MESO14-hPDPN cells, antibody 1 µg/ml
T14 construct: Podoplanin gene expression strain
T14 chain: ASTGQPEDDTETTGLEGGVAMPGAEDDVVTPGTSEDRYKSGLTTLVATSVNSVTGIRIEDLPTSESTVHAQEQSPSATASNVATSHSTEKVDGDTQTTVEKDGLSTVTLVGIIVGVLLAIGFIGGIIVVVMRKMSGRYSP
Procedure: as §1

[15] = molecular target: T11, human podoplanin on glioblastoma cells …; experiment: flow cytometry on LN319 cells, culture supernatant

Measured: binding result

B1: LpMab-7 (antibody)
heavy: DVQLVESGGGLVQPGGSRKLSCAASGFTFSGFGMHWVRQAPEKGLEWVAYISSVSSRIYYADTVKGRFTISRDNPKNTLFLQMTSLRSEDTAMYYCAREQTGPAWFAYWGQGTLVTVSAAKTTPPSVYPLAPGSAAQTNSMVTLGCLVKGYFPEPVTVTWNSGSLSSGVHTFPAVLQSDLYTLSSSVTVPSSTWPSETVTCNVAHPASSTKVDKKIVPRDCGCKPCICTVPEVSSVFIFPPKPKDVLTITLTPKVTCVVVDISKDDPEVQFSWFVDDVEVHTAQTQPREEQFNSTFRSVSELPIMHQDWLNGKEFKCRVNSAAFPAPIEKTISKTKGRPKAPQVYTIPPPKEQMAKDKVSLTCMITDFFPEDITVEWQWNGQPAENYKNTQPIMDTDGSYFVYSKLNVQKSNWEAGNTFTCSVLHEGLHNHHTEKSLSHSPGK
light: DVLMTQTPLSLPVSLGDQASISCRSSRNIVQSTGNTYLEWYLQKPGQSPKLLIFKVSNRFSGVPDRFSGSGSGTDFTLKISRVEAEDLGVYYCFQGSHVPPWTFGGGTKLEIKRADAAPTVSIFPPSSEQLTSGGASVVCFLNNFYPKDINVKWKIDGSERQNGVLNSWTDQDSKDSTYSMSSTLTLTKDEYERHNSYTCEATHKTSTSPIVKSFNRNEC
notes: Mouse IgG1, kappa, from hybridoma; Entries may hold the signal peptide
not listed: [15]
binds: all other assays above

B2: rLpMab-7 (antibody, mouse IgG1, kappa)
heavy: DVQLVESGGGLVQPGGSRKLSCAASGFTFSGFGMHWVRQAPEKGLEWVAYISSVSSRIYYADTVKGRFTISRDNPKNTLFLQMTSLRSEDTAMYYCAREQTGPAWFAYWGQGTLVTVSAAKTTPPSVYPLAPGSAAQTNSMVTLGCLVKGYFPEPVTVTWNSGSLSSGVHTFPAVLQSDLYTLSSSVTVPSSTWPSETVTCNVAHPASSTKVDKKIVPRDCGCKPCICTVPEVSSVFIFPPKPKDVLTITLTPKVTCVVVDISKDDPEVQFSWFVDDVEVHTAQTQPREEQFNSTFRSVSELPIMHQDWLNGKEFKCRVNSAAFPAPIEKTISKTKGRPKAPQVYTIPPPKEQMAKDKVSLTCMITDFFPEDITVEWQWNGQPAENYKNTQPIMDTDGSYFVYSKLNVQKSNWEAGNTFTCSVLHEGLHNHHTEKSLSHSPGK
light: DVLMTQTPLSLPVSLGDQASISCRSSRNIVQSTGNTYLEWYLQKPGQSPKLLIFKVSNRFSGVPDRFSGSGSGTDFTLKISRVEAEDLGVYYCFQGSHVPPWTFGGGTKLEIKRADAAPTVSIFPPSSEQLTSGGASVVCFLNNFYPKDINVKWKIDGSERQNGVLNSWTDQDSKDSTYSMSSTLTLTKDEYERHNSYTCEATHKTSTSPIVKSFNRNEC
notes: Full-length H and L chain of LpMab-7 expressed in CHO cells; also called recombinant LpMab-7
binds: [15]

B3: chLpMab-7 (antibody, human IgG1, kappa)
heavy: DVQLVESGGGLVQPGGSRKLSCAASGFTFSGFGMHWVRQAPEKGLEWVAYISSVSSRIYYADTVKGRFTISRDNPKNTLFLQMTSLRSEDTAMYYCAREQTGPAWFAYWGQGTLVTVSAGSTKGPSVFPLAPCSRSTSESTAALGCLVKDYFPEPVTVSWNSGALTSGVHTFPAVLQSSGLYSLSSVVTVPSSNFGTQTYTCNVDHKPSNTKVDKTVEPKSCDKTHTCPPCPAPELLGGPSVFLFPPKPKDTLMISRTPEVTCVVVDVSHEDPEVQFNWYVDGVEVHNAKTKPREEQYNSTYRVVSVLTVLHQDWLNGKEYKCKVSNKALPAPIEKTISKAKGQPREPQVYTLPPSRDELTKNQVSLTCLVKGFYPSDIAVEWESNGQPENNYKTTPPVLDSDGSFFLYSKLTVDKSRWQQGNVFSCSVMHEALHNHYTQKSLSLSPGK
light: DVLMTQTPLSLPVSLGDQASISCRSSRNIVQSTGNTYLEWYLQKPGQSPKLLIFKVSNRFSGVPDRFSGSGSGTDFTLKISRVEAEDLGVYYCFQGSHVPPWTFGGGTKLEIKRADAAPTVSIFPPSSEQLTSGGASVVCFLNNFYPKDINVKWKIDGSERQNGVLNSWTDQDSKDSTYSMSSTLTLTKDEYERHNSYTCEATHKTSTSPIVKSFNRNEC
notes: culture supernatant used; also called human chimeric LpMab-7
binds: [15]

B4: chLpMab-23 (antibody, human IgG1, kappa, V domains shown)
VH: QVQLKESGPGLVAPSQSLSITCTVSGFSVTSYGIHWVRQPPGKGLEWLGVIWTSGNTNYNSALMSRLSISRDNSKSQVFLKMNSLQTDDTAMYYCAREDYYGYAMDYWGQGTSVTVSS
VL: not shown
notes: Variable regions of LpMab-23 with human IgG1 constant region; Culture supernatant used; also called human chimeric LpMab-23 antibody
binds: [15]

B5: chLpMab-3 (antibody, human IgG1, kappa, V domains shown)
VH: EVQLVESGGGLVKPGGSLKLSCAASGFTFTRYAMSWVRQTPEKRLEWVATISNGGSYTYYLDSVKGRFTLSRDNAKNTLYLQMSSLRSEDTAMYYCARREGGQAGPAWFVYWGQGTLVTVSA
VL: DIVMTQSPSSLAMSVGQKVTMNCKSSQSLLNSSNQKNYLAWYQQKPGQSPKLLVYFASTRESGVPDRFIGSGSGTDFTLTISSAQAEDLADYFCQQYYSTPPTFGAGTKLELKR
notes: culture supernatant used; also called human chimeric LpMab-3
binds: [15]
